Measurements from IntAct's records for PubMed 25036637.

B1: BAG family molecular chaperone regulator 4 (Homo sapiens), O95429 (parent)
chain: MSALRRSGYGPSDGPSYGRYYGPGGGDVPVHPPPPLYPLRPEPPQPPISWRVRGGGPAETTWLGEGGGGDGYYPSGGAWPEPGRAGGSHQEQPPYPSYNSNYWNSTARSRAPYPSTYPVRPELQGQSLNSYTNGAYGPTYPPGPGANTASYSGAYYAPGYTQTSYSTEVPSTYRSSGNSPTPVSRWIYPQQDCQTEAPPLRGQVPGYPPSQNPGMTLPHYPYGDGNRSVPQSGPTVRPQEDAWASPGAYGMGGRYPWPSSAPSAPPGNLYMTESTSPWPSSGSPQSPPSPPVQQPKDSSYPYSQSDQSMNRHNFPCSVHQYESSGTVNNDDSDLLDSQVQYSAEPQLYGNATSDHPNNQDQSSSLPEECVPSDESTPPSIKKIIHVLEKVQYLEQEVEEFVGKKTDKAYWLLEEMLTKELLELDSVETGGQDSVRQARKEAVCKIQAILEKLEKKGL
partner: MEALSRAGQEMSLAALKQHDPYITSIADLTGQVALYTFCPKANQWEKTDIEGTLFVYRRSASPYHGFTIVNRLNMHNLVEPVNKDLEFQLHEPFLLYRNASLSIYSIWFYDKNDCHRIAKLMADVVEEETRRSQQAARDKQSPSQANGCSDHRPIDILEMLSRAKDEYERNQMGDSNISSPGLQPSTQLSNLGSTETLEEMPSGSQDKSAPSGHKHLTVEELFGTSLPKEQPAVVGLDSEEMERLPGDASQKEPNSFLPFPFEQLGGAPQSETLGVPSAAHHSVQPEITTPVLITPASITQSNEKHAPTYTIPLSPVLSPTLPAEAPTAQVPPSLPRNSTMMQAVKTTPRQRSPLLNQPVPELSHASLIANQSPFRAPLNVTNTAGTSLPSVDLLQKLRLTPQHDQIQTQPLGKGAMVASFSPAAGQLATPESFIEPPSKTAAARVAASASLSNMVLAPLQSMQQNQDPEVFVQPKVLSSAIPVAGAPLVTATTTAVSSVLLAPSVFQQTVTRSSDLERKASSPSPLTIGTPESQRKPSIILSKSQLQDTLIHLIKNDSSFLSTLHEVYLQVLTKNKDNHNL

Variants of: B1
Details: with dcp1a_human DCP1A

**Q.** With D424A as the variant, how does the “effect of a mutation on the interaction” value read?
**A.** Its value is “disrupting interaction”.
